Results published in US12723255B2, “Herbicide tolerance genes and methods of use thereof” (priority 2014, dated 2026).

Legend:
[1] = enzyme activity assay at 23° C. with purified enzyme; type: biochemical; conditions: for maximum activity as a percentage of the wild-type enzyme's activity, Haloxyfop: purified enzyme
Description: The enzyme activity of MON-HT protein variants with haloxyfop, fenoxaprop, fluazifop, and dichlorprop as substrates was determined using the enzyme activity assay conducted at 23° C. with purified enzyme. The activity was recorded as the maximum activity as a percentage of the wild-type enzyme's activity, which was set at 100%.

F1 hybrid maize plants = assay: efficacy field trial for 2,4-D tolerance; type: in vivo; conditions: scale 0 to 100, with CTP unless label says no CTP; for average injury rating, V4 Growth Stage, 2x 2,4-D / average injury rating, V8 Growth Stage, 2x 2,4-D: 2 lb ae/acre at VE-V2, V4, V8; for average injury rating, V4 Growth Stage, 4x 2,4-D / average injury rating, V8 Growth Stage, 4x 2,4-D: 4 lb ae/acre at VE-V2, V4, V8; for average injury rating, V4 Growth Stage, 8x 2,4-D / average injury rating, V8 Growth Stage, 8x 2,4-D: 8 lb ae/acre at VE-V2, V4, V8; for average injury rating, V4 Growth Stage, 16x 2,4-D / average injury rating, V8 Growth Stage, 16x 2,4-D: 16 lb ae/acre at VE-V2, V4, V8
Description: Separate trait efficacy field trials for quizalofop-P and 2,4-D were conducted at two locations cach with F1 hybrid transgenic plants produced by crossing an inbred plant containing maize event MON89034 with an R1 plant containing MON-HT55 (with a CTP), MON-HTI (with or without a CTP), MON-HT2 (with or without a CTP), MON-HT3 (with a CTP), MON-HT4 (with a CTP), MON-HT5 (with a CTP), MON-HT6 (with a CTP), or MON-HT7 (with a CTP). Transgenic F1 hybrid plants containing maize events NK603×MON89034 were used for comparison as a control.
In the efficacy field trial for 2,4-D tolerance, one of four herbicide treatments was used: (1) 2,4-D amine at 2 lb ac/acre (2×) plus 0.25% v/v non-ionic surfactant (NIS) applied to VE to V2 followed by V4 followed by V8; (2) 2,4-D amine at 4 lb ac/acre (4×) plus 0.25% v/v NIS applied to VE to V2 followed by V4 followed by V8; (3) 2,4-D amine at 8 lb ac/acre (8×) plus 0.25% v/v NIS applied to VE to V2 followed by V4 followed by V8 maize; or (4) 2,4-D amine at 16 lb ac/acre (16×) plus 0.25% v/v NIS applied to VE to V2 followed by V4 followed by V8. Plots were visually rated as above. Tables 14 and 15 show the average injury ratings after herbicide application at V4 or V8 growth stage, respectively.

[2] = kinetic analysis, non-endpoint assay at 23° C.; type: biochemical; conditions: standard error in parenthetical; for Vmax Quizalofop / Km: 23° C., purified His-tagged protein; for Km: read-out: Km Quizalofop; for Km 2,4-D / Vmax 2,4-D: NDB = activity not robust enough for kinetic characterization
Summary of the method: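 Purified C-terminal 6-His-tagged recombinant enzymes expressed in bacteria; quizalofop-P or 2,4-D as substrate. Vmax reported as specific activity (umol herbicide product mg enzyme-1 min-1) and Km as mM herbicide substrate, with standard error.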

B1: MON-HT5: engineered oxygenase protein, amino acid sequence SEQ ID NO:28 (protein)
chain: MHAALTPLTNKYRFIDVQPLTGVLGAEITGVDLREPLDDSTWNEILDAFHTYQVIYFPGQAITNEQHIAFSRRFGPVDPVPLLKSIEGYPEVQMIRREANESGRVIGDDWHTDSTFLDAPPAAVVMRAIEVPEYGGDTGFLSMYSAWETLSPTMQATIEGLNVVHSATKVFGSLYQATNWRFSNTSVKVMDVDAGDRETVHPLVVTHPVTGRRALYCNQVYCQKIQGMTDAESKSLLQFLYEHATKFDFTCRVRWKKDQVLVWDNLCTMHRAVPDYAGKFRYLTRTTVAGDKPSR
maximum activities for all four substrates compared with the wild-type enzyme ([1]; haloxyfop, fenoxaprop, fluazifop and dichlorprop): lower than, or equal to
maximum activity as a percentage of the wild-type enzyme's activity, Haloxyfop ([1]; wild-type set at 100%): 100%
maximum activity as a percentage of the wild-type enzyme's activity, Dichlorprop ([1]; wild-type set at 100%): 36%
maximum activity as a percentage of the wild-type enzyme's activity, Fenoxaprop ([1]; wild-type set at 100%): 92%
maximum activity as a percentage of the wild-type enzyme's activity, Fluazifop ([1]; wild-type set at 100%): 46%
average injury rating, V4 Growth Stage, 2x 2,4-D (F1 hybrid maize plants): 2.5
average injury rating, V8 Growth Stage, 2x 2,4-D (F1 hybrid maize plants): 3.3
average injury rating, V4 Growth Stage, 4x 2,4-D (F1 hybrid maize plants): 2.5
average injury rating, V8 Growth Stage, 4x 2,4-D (F1 hybrid maize plants): 4.0
average injury rating, V4 Growth Stage, 8x 2,4-D (F1 hybrid maize plants): 7.5
average injury rating, V8 Growth Stage, 8x 2,4-D (F1 hybrid maize plants): 10.0
average injury rating, V4 Growth Stage, 16x 2,4-D (F1 hybrid maize plants): 17.5
average injury rating, V8 Growth Stage, 16x 2,4-D (F1 hybrid maize plants): 21.3
Vmax Quizalofop [2]: 0.57 (−0.03) umol herbicide product mg enzyme-1 min-1
Km [2]: 170 µM
Km 2,4-D [2]: NDB
Vmax 2,4-D [2]: NDB

B2: MON-HT6: engineered oxygenase protein, amino acid sequence SEQ ID NO:31 (protein)
chain: MHAALSPLSQKYRFIDVQPLTGVLGAEITGVTLREPLDDNTWNEILDAFHTYQVIYFPGQAITNEQHIAFSRRFGPVDPVPLLKSIEGYPEVQMIRREANESGRVIGDDWHTDSTFLDAPPAAVVMYAREVPPYGGDTGFLSMYSAWDTLSDTMKATIEGLNVVHSATRVFGSLYQAQNRRFSNTSVKVMDVDAGDRETVHPLVVSHPVTGRRALYCNQVYCQRIEGMTDAESKPLLQFLYEHATRFDFTCRVRWKKDQVLVWDNLCTMHRAVPDYAGKFRYLTRTTVAGDKPSR
maximum activity as a percentage of the wild-type enzyme's activity, Haloxyfop ([1]; wild-type set at 100%): 75%
maximum activity as a percentage of the wild-type enzyme's activity, Dichlorprop ([1]; wild-type set at 100%): 37%
maximum activity as a percentage of the wild-type enzyme's activity, Fluazifop ([1]; wild-type set at 100%): 47%
average injury rating, V4 Growth Stage, 2x 2,4-D (F1 hybrid maize plants): 0.0
average injury rating, V8 Growth Stage, 2x 2,4-D (F1 hybrid maize plants): 6.3
average injury rating, V4 Growth Stage, 4x 2,4-D (F1 hybrid maize plants): 2.0
average injury rating, V8 Growth Stage, 4x 2,4-D (F1 hybrid maize plants): 4.3
average injury rating, V4 Growth Stage, 8x 2,4-D (F1 hybrid maize plants): 5.8
average injury rating, V8 Growth Stage, 8x 2,4-D (F1 hybrid maize plants): 11.3
average injury rating, V4 Growth Stage, 16x 2,4-D (F1 hybrid maize plants): 8.8
average injury rating, V8 Growth Stage, 16x 2,4-D (F1 hybrid maize plants): 12.5
Vmax Quizalofop [2]: 0.39 (−0.03) umol herbicide product mg enzyme-1 min-1
Km [2]: 100 µM
Km 2,4-D [2]: NDB
Vmax 2,4-D [2]: NDB
